Results on four molecules are retold here after PMC3413117 (Nucleic Acids Research, 2012).

The target of one data set is T1, LiBRCA2 (Leishmania infantum, UniProt A4HYJ9 1-1165).
T1 sequence: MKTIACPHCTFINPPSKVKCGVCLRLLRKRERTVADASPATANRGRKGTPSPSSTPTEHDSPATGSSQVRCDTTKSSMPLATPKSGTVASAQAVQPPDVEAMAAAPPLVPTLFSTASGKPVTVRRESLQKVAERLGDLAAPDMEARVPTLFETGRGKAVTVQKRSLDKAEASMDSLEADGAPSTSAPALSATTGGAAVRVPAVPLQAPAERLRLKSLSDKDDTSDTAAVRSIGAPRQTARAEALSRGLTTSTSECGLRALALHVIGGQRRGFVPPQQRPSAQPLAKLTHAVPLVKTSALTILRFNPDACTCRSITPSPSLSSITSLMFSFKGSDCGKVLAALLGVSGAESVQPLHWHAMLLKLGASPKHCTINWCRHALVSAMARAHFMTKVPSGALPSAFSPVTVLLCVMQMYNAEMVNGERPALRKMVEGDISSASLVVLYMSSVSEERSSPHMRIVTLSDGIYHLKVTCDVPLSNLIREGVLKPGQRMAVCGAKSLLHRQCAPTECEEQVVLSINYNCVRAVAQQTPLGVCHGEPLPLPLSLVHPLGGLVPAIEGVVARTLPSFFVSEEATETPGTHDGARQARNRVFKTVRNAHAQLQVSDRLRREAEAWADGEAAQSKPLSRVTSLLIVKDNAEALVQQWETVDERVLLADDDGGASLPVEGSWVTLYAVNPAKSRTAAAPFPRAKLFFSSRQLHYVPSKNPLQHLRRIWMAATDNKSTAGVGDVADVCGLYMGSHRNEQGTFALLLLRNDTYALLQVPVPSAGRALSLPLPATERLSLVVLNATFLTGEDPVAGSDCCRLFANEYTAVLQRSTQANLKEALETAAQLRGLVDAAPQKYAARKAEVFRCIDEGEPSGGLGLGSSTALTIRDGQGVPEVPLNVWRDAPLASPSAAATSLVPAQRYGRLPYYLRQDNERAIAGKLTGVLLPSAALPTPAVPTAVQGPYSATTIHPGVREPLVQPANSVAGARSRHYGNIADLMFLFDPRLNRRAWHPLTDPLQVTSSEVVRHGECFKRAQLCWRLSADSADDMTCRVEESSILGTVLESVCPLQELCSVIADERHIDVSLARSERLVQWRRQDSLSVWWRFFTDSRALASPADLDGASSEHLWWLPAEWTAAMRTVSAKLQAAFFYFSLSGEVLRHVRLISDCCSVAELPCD
The data set is described as follows: EMSA. (Mobility shift assays separate free from complexed probe on a gel.)

In the next data set the target is T2, LiBRCA2-B1 (Leishmania infantum, UniProt A4HYJ9 1-122).
T2 sequence: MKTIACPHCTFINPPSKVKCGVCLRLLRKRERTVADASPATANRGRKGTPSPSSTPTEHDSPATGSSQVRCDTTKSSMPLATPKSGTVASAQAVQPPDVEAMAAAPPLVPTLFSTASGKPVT
The data set is described as follows: EMSA.

The data set “SEC” concerns the molecule itself. The data set is described as follows: SEC. (In gel filtration, larger molecules generally elute earlier.)

B1: 60-mer ssDNA (JYM925) (ssDNA)
DNA: GGGTGAACCTGCAGGTGGGCAAAGATGTCCTAGCAATGTAATCGTCAAGCTTTATGCCGT
For the molecule B1, the binding result with LiBRCA2 is reported as “binds”; in the data set with LiBRCA2-B1, “no binding”.

B2: 60-mer dsDNA (JYM925/JYM945) (dsDNA)
DNA 1: B1 DNA
DNA 2: ACGGCATAAAGCTTGACGATTACATTGCTAGGACATCTTTGCCCACCTGCAGGTTCACCC
B2: the binding result with LiBRCA2 is given as “no binding”.

B3: Leishmania infantum BRCA2, purified LiBRCA2-His (GST tag cleaved) (natural protein)
chain: T1 sequence
B3: the binding result in “SEC” is “binds”.

B4: Leishmania infantum RAD51, purified (GST tag cleaved) (natural protein)
chain: MQTRSKAKGRRGRPSARPSEEVEVVESQPQEALQNEEQEPRQQQQQSTDMAEPNASGFRVIQILENYGVASSDIKKLMECGFYTVESAAYAPKKAILAVKGISENKAEKIMAECAKLVPMGFTSAVAYHEARKEIIMVTTGSREVDKLLGGGIETGSITELFGEFRTGKTQLCHTLCVTCQLPISQGGAEGMALYIDTEGTFRPERLVAVAERYKLDPEDVLANVACARAFNTDHQQQLLLQASAMMAENRFALIVVDSATALYRTDYSGRNELAARQMHLGKFLRSLHNLAEEYGVAVVVTNQVVANVDGSAQMFQADSKKPIGGHIMAHASTTRLSLRKGRGEQRIIKVYDSPCLAEAEAIFGIYDDGVGDARD
For the molecule B4, the binding result in “SEC” is “binds”.
